The values below come from US20230272056A1 (Merck Sharp & Dohme, published 2023).

B1: VL D92Y (57BIT) (Fab, V domains shown)
VH: EVQLVQSGAEVKKPGASVKVSCKASGYTFTSYWMHWVRQAPGQGLEWMGRIDPQSGGIKYAQKFQGRATLTVDTSTSTAYMELSRLRSDDTAVYYCARWDYGGYFDVWGQGTLVTVSS
VL: DIQMTQSPSSLSASVGDRVTITCRASQDITNYLNWYQQKPGKAVKLLIYYTSRLHSGVPSRFSGSGSGTDYTLTISSLQPEDFATYFCQQGYTLPWTFGQGTKLEIKR
B2: VL S26Y (40BIT) (Fab, V domains shown)
VH: EVQLVQSGAEVKKPGASVKVSCKASGYTFTSYWMHWVRQAPGQGLEWMGRIDPQSGGIKYAQKFQGRATLTVDTSTSTAYMELSRLRSDDTAVYYCARWDYGGYFDVWGQGTLVTVSS
VL: DIQMTQSPSSLSASVGDRVTITCRAYQDITNYLNWYQQKPGKAVKLLIYYTSRLHSGVPSRFSGSGSGTDYTLTISSLQPEDFATYFCQQGDTLPWTFGQGTKLEIKR
B3: VL P95Y (60BIT) (Fab, V domains shown)
VH: EVQLVQSGAEVKKPGASVKVSCKASGYTFTSYWMHWVRQAPGQGLEWMGRIDPQSGGIKYAQKFQGRATLTVDTSTSTAYMELSRLRSDDTAVYYCARWDYGGYFDVWGQGTLVTVSS
VL: DIQMTQSPSSLSASVGDRVTITCRASQDITNYLNWYQQKPGKAVKLLIYYTSRLHSGVPSRFSGSGSGTDYTLTISSLQPEDFATYFCQQGDTLYWTFGQGTKLEIKR
B4: VL Q90Y (55BIT) (Fab, V domains shown)
VH: EVQLVQSGAEVKKPGASVKVSCKASGYTFTSYWMHWVRQAPGQGLEWMGRIDPQSGGIKYAQKFQGRATLTVDTSTSTAYMELSRLRSDDTAVYYCARWDYGGYFDVWGQGTLVTVSS
VL: DIQMTQSPSSLSASVGDRVTITCRASQDITNYLNWYQQKPGKAVKLLIYYTSRLHSGVPSRFSGSGSGTDYTLTISSLQPEDFATYFCQYGDTLPWTFGQGTKLEIKR
B5: VL N31Y (45BIT) (Fab, V domains shown)
VH: EVQLVQSGAEVKKPGASVKVSCKASGYTFTSYWMHWVRQAPGQGLEWMGRIDPQSGGIKYAQKFQGRATLTVDTSTSTAYMELSRLRSDDTAVYYCARWDYGGYFDVWGQGTLVTVSS
VL: DIQMTQSPSSLSASVGDRVTITCRASQDITYYLNWYQQKPGKAVKLLIYYTSRLHSGVPSRFSGSGSGTDYTLTISSLQPEDFATYFCQQGDTLPWTFGQGTKLEIKR
B6: VL I29Y (43BIT) (Fab, V domains shown)
VH: EVQLVQSGAEVKKPGASVKVSCKASGYTFTSYWMHWVRQAPGQGLEWMGRIDPQSGGIKYAQKFQGRATLTVDTSTSTAYMELSRLRSDDTAVYYCARWDYGGYFDVWGQGTLVTVSS
VL: DIQMTQSPSSLSASVGDRVTITCRASQDYTNYLNWYQQKPGKAVKLLIYYTSRLHSGVPSRFSGSGSGTDYTLTISSLQPEDFATYFCQQGDTLPWTFGQGTKLEIKR
B7: VL Q89Y (54BIT) (Fab, V domains shown)
VH: EVQLVQSGAEVKKPGASVKVSCKASGYTFTSYWMHWVRQAPGQGLEWMGRIDPQSGGIKYAQKFQGRATLTVDTSTSTAYMELSRLRSDDTAVYYCARWDYGGYFDVWGQGTLVTVSS
VL: DIQMTQSPSSLSASVGDRVTITCRASQDITNYLNWYQQKPGKAVKLLIYYTSRLHSGVPSRFSGSGSGTDYTLTISSLQPEDFATYFCYQGDTLPWTFGQGTKLEIKR
B8: VL R24Y (38BIT) (Fab, V domains shown)
VH: EVQLVQSGAEVKKPGASVKVSCKASGYTFTSYWMHWVRQAPGQGLEWMGRIDPQSGGIKYAQKFQGRATLTVDTSTSTAYMELSRLRSDDTAVYYCARWDYGGYFDVWGQGTLVTVSS
VL: DIQMTQSPSSLSASVGDRVTITCYASQDITNYLNWYQQKPGKAVKLLIYYTSRLHSGVPSRFSGSGSGTDYTLTISSLQPEDFATYFCQQGDTLPWTFGQGTKLEIKR
B9: VL G91Y (56BIT) (Fab, V domains shown)
VH: EVQLVQSGAEVKKPGASVKVSCKASGYTFTSYWMHWVRQAPGQGLEWMGRIDPQSGGIKYAQKFQGRATLTVDTSTSTAYMELSRLRSDDTAVYYCARWDYGGYFDVWGQGTLVTVSS
VL: DIQMTQSPSSLSASVGDRVTITCRASQDITNYLNWYQQKPGKAVKLLIYYTSRLHSGVPSRFSGSGSGTDYTLTISSLQPEDFATYFCQQYDTLPWTFGQGTKLEIKR
B10: VL L54Y (51BIT) (Fab, V domains shown)
VH: EVQLVQSGAEVKKPGASVKVSCKASGYTFTSYWMHWVRQAPGQGLEWMGRIDPQSGGIKYAQKFQGRATLTVDTSTSTAYMELSRLRSDDTAVYYCARWDYGGYFDVWGQGTLVTVSS
VL: DIQMTQSPSSLSASVGDRVTITCRASQDITNYLNWYQQKPGKAVKLLIYYTSRYHSGVPSRFSGSGSGTDYTLTISSLQPEDFATYFCQQGDTLPWTFGQGTKLEIKR
B11: VL Q27Y (41BIT) (Fab, V domains shown)
VH: EVQLVQSGAEVKKPGASVKVSCKASGYTFTSYWMHWVRQAPGQGLEWMGRIDPQSGGIKYAQKFQGRATLTVDTSTSTAYMELSRLRSDDTAVYYCARWDYGGYFDVWGQGTLVTVSS
VL: DIQMTQSPSSLSASVGDRVTITCRASYDITNYLNWYQQKPGKAVKLLIYYTSRLHSGVPSRFSGSGSGTDYTLTISSLQPEDFATYFCQQGDTLPWTFGQGTKLEIKR
B12: VL L94Y (59BIT) (Fab, V domains shown)
VH: EVQLVQSGAEVKKPGASVKVSCKASGYTFTSYWMHWVRQAPGQGLEWMGRIDPQSGGIKYAQKFQGRATLTVDTSTSTAYMELSRLRSDDTAVYYCARWDYGGYFDVWGQGTLVTVSS
VL: DIQMTQSPSSLSASVGDRVTITCRASQDITNYLNWYQQKPGKAVKLLIYYTSRLHSGVPSRFSGSGSGTDYTLTISSLQPEDFATYFCQQGDTYPWTFGQGTKLEIKR
B13: VL N34Y (47BIT) (Fab, V domains shown)
VH: EVQLVQSGAEVKKPGASVKVSCKASGYTFTSYWMHWVRQAPGQGLEWMGRIDPQSGGIKYAQKFQGRATLTVDTSTSTAYMELSRLRSDDTAVYYCARWDYGGYFDVWGQGTLVTVSS
VL: DIQMTQSPSSLSASVGDRVTITCRASQDITNYLYWYQQKPGKAVKLLIYYTSRLHSGVPSRFSGSGSGTDYTLTISSLQPEDFATYFCQQGDTLPWTFGQGTKLEIKR
B14: VL R53Y (50BIT) (Fab, V domains shown)
VH: EVQLVQSGAEVKKPGASVKVSCKASGYTFTSYWMHWVRQAPGQGLEWMGRIDPQSGGIKYAQKFQGRATLTVDTSTSTAYMELSRLRSDDTAVYYCARWDYGGYFDVWGQGTLVTVSS
VL: DIQMTQSPSSLSASVGDRVTITCRASQDITNYLNWYQQKPGKAVKLLIYYTSYLHSGVPSRFSGSGSGTDYTLTISSLQPEDFATYFCQQGDTLPWTFGQGTKLEIKR
B15: VL L33Y (46BIT) (Fab, V domains shown)
VH: EVQLVQSGAEVKKPGASVKVSCKASGYTFTSYWMHWVRQAPGQGLEWMGRIDPQSGGIKYAQKFQGRATLTVDTSTSTAYMELSRLRSDDTAVYYCARWDYGGYFDVWGQGTLVTVSS
VL: DIQMTQSPSSLSASVGDRVTITCRASQDITNYYNWYQQKPGKAVKLLIYYTSRLHSGVPSRFSGSGSGTDYTLTISSLQPEDFATYFCQQGDTLPWTFGQGTKLEIKR
B16: VL H55Y (52BIT) (Fab, V domains shown)
VH: EVQLVQSGAEVKKPGASVKVSCKASGYTFTSYWMHWVRQAPGQGLEWMGRIDPQSGGIKYAQKFQGRATLTVDTSTSTAYMELSRLRSDDTAVYYCARWDYGGYFDVWGQGTLVTVSS
VL: DIQMTQSPSSLSASVGDRVTITCRASQDITNYLNWYQQKPGKAVKLLIYYTSRLYSGVPSRFSGSGSGTDYTLTISSLQPEDFATYFCQQGDTLPWTFGQGTKLEIKR

In the assay the target is T1, human LAP-TGFB1 Fc fusion (human).
T1 construct: also called human LAP-TGFβ1-Fc; human LAP-TGFβ-Fc isoform 1
T1 sequence (chain, as listed by the source limits assumed): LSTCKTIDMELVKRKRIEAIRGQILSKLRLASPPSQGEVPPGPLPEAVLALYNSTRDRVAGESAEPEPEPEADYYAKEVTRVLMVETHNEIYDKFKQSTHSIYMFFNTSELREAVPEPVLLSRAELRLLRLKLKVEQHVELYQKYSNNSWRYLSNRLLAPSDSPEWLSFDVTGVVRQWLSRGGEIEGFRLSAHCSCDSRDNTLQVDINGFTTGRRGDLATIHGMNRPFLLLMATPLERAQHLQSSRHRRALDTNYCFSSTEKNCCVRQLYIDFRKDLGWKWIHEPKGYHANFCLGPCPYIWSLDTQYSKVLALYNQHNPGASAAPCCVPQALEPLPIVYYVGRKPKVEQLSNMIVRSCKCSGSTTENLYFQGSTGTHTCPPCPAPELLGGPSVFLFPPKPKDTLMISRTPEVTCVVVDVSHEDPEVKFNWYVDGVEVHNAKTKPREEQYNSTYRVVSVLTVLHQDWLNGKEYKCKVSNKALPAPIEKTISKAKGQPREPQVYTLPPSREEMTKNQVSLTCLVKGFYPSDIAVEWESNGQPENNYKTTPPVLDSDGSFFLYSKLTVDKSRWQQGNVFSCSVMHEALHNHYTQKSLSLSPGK
In words: BLI off-rate screen. The method, then: The Fab mutants including a positive control, 20E6 Fab, and a negative control Fab (Molecular Innovations, catalog HU-FAB-4510) were diluted to 200 nM in assay buffer and loaded to FAB2G sensors for 180 seconds followed by a one-hour incubation at room temperature in assay buffer to equilibrate the tips. The Fab loaded sensors were assessed for binding with 100 nM human LAP-TGFβ for 180 seconds followed by a 180 second dissociation phase in assay buffer on a ForteBio HTX (software version 9.0.0.66). Non-specific binding to the negative control Fab was subtracted and the binding sensorgrams were aligned to the start of the association phase on the X and Y axis. The Fab binding was fit with the 1:1 binding model, dissociation phase only, with local fitting using ForteBio Data Analysis 9.0 software.
Twenty-three variants containing a single tyrosine substitution in the light chain CDRs (at one of amino acid positions 24-31, 33, 34, 51-56, and 89-95 according to Kabat numbering scheme) and 21 similar heavy chain CDR variants (at amino acids positions 28-31, 33-35, 50-58 including 52a, 95, 96, 98, and 99 according to Kabat numbering scheme) were generated according to FIG. 1 and listed in Table 6 and their interactions with human LAP-TGFb1 were analyzed by ForteBio interferometry. […] In those sequences the VL is correct, even though these sequences are from the heavy chain. Thus, the VL_X ##Y refers to the position of the tyrosine mutation within the antibody, regardless of whether the sequence is a heavy or light chain.
As for B1, the Binding response was found to be 0.046 nm and the binding result is on record as “no binding (tested: 100 nM antigen)”.
Turning to B2, the Binding response amounted to 0.371 nm, the Fold change is 1.5 fold and the koff (commonly a measure of how fast the partners let go of each other) is 0.0283 s⁻¹.
Turning to B3, the Binding response came to 0.015 nm and the binding result is recorded as “no binding (tested: 100 nM antigen)”.
With B4, the Binding response stood at 0.04 nm and the binding result was “no binding (tested: 100 nM antigen)”.
B5: the Binding response turned out to be 0.344 nm, the Fold change is 1.8 fold and the off-rate constant (koff) stood at 0.0241 s⁻¹.
Molecule B6 gave a Binding response of 0.071 nm, a Fold change of 1.6 fold and a koff of 0.0264 s⁻¹.
With B7, the Binding response stood at 0.035 nm and the binding result was “no binding (tested: 100 nM antigen)”.
B8: the Binding response is 0.446 nm, the Fold change worked out at 1.6 fold and the koff was determined as 0.027 s⁻¹.
Take B9: the Binding response worked out at 0.044 nm and the binding result is given as “no binding (tested: 100 nM antigen)”.
In turn, B10 returned a Binding response of 0.299 nm, a Fold change of 1 fold and a koff of 0.0405 s⁻¹.
For B11, in that order: 0.427 nm, 1.8 fold and 0.0229 s⁻¹.
For B12, in that order: 0.308 nm, 0.7 fold and 0.0571 s⁻¹.
On to B13, for which the Binding response amounted to 0.221 nm, the Fold change is 1 fold and the koff stood at 0.0436 s⁻¹.
Molecule B14 gave a Binding response of 0.365 nm, a Fold change of 1.6 fold and a koff of 0.027 s⁻¹.
With B15, the Binding response is 0.095 nm, the Fold change worked out at 1 fold and the koff was found to be 0.0413 s⁻¹.
Turning to B16, the Binding response was determined as 0.265 nm, the Fold change was 1.1 fold and the koff was 0.0385 s⁻¹.
